Publication PMC6899460, “The Pseudomonas aeruginosa T6SS Delivers a Periplasmic Toxin that Disrupts Bacterial Cell Morphology” (Cell Reports, 2019)

Biological target: the molecule itself
Experiment: SEC-MALS; SEC-MALLS and refractometry; Superdex 75 10/30 column, 20°C, 0.5 ml/min; fractions pooled from two peaks obtained after preparatory size-exclusion chromatography; dimer and monomer

B1: VgrG2b C-terminal domain (VgrG2bC-ter) (domain or fragment)
chain: VGETQRRFVLKQLDGQTAMPNVPYTITMANGEVIEGVTDAEGATQLLQKDAMNIAKVDMKHTKSPASAVAGIAAAVGAAVAVGKLLGGPDAEAGRALSEGEISLAKGVFGDSIDYSTVRLRDEDYVPWQGKDYVMAPNGHIYFGEELRGVADWSLESLQRQGLFIHEMTHVWQHQHGVNVLLVGAYQQARQFLLGDQYAYRLEPGKTLKDYNIEQQGDIVRDYFLEKNEFGEASANSRFAGVLKNFPTGY
notes: VgrG2b of Pseudomonas aeruginosa PAO1, C-terminal domain, residues 770-1,019; Monomeric and dimeric species were both found in solution; also called VgrG2b metallopeptidase domain; source: E. coli BL21 (λDE3) pET28a-vgrG2bC-ter, purified (Ni2+-NTA, SEC); not shown: His6, C-terminal, cleaved
- stoichiometry N: 2
